{"source": "patent US20080138837A1", "about": "“Methods and kits for detecting and measuring ADAMTS13/FXI complexes” (priority 2004, published 2008)", "key": {"[1]": {"target": "T1, recombinant ADAMTS13 (recADAMTS13) (Homo sapiens, UniProt Q76LX8)", "T1 construct": "made in house; host or cells: HEK 293 cells; crude culture supernatant supplied by Dr. David Ginsburg, University of Michigan", "T1 sequence (Q76LX8 75-1427)": "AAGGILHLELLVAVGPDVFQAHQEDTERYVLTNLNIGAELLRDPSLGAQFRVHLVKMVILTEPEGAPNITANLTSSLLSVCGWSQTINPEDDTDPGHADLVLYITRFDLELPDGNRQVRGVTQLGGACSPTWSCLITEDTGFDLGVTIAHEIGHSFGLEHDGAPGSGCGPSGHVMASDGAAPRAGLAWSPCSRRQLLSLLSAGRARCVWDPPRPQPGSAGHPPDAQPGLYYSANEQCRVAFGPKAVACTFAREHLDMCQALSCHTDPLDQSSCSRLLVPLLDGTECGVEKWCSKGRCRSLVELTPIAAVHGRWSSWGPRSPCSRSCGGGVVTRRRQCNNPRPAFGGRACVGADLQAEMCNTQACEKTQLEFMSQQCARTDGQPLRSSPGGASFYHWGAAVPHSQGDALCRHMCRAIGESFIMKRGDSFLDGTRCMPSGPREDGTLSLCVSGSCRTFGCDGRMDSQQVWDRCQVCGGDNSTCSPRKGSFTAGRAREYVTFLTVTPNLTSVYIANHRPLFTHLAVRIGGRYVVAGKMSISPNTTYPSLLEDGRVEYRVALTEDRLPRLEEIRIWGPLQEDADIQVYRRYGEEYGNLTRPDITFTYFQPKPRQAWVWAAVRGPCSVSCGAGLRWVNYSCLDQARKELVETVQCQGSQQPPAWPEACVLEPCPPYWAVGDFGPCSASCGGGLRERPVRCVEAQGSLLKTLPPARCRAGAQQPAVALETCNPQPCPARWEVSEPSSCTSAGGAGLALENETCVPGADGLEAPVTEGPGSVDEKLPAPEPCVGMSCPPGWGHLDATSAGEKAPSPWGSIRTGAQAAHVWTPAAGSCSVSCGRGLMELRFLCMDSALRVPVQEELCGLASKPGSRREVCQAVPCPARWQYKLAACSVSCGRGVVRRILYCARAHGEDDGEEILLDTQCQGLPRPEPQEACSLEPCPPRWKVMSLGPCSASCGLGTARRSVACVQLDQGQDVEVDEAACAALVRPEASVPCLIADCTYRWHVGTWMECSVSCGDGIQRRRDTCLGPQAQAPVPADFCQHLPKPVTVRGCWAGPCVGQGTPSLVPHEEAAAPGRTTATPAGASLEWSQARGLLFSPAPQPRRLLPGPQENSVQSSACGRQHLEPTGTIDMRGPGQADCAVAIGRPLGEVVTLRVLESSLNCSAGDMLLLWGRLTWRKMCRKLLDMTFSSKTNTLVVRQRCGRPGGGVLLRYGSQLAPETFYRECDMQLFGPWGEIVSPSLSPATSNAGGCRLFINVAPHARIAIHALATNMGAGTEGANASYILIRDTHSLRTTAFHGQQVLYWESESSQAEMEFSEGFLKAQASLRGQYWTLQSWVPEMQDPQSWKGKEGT", "assay": "Recombinant ADAMTS13 activity in tissue culture supernatants using fluorescent substrate", "format": "biochemical", "conditions": "0.8 mM substrate, 50 mM Tris-HCl pH 8.0, FIG. 5", "description": "HEK 293 cells were transfected with a vector encoding ADAMTS13. Cell culture supernatant from the transfected HEK 293 cells, containing recombinant ADAMTS13, was generously provided by Dr. David Ginsburg (University of Michigan, Mich.). Mock transfected cell supernatant with no recombinant ADAMTS13 was also provided as a control.\nFluorescence signals were compared between tissue culture supernatant from HEK 293 cells transfected with a viral vector coding for recombinant ADAMTS13 (“recADAMTS13”) and supernatant from mock transfected HEK 293 cells, as a control. (Culture supernatants were supplied by Dr. David Ginsburg, University of Michigan.) Varying amounts of the two culture supernatants were added to 0.8 mM Suc-Leu-Leu-Val-Tyr-AMC (SEQ ID NO: 2) fluorescent substrate in 50 mM Tris-HCl pH 8.0 in a total volume of 100 μl."}, "ADAMTS13": {"system": "ADAMTS13", "assay": "ADAMTS13 activity in PRP using peptidyl substrates", "format": "biochemical, human", "conditions": "0.8 mM substrate, 37° C., FIG. 3", "experimental": "Blood was collected by venopuncture into collection tubes containing 0.12 M sodium citrate, an anti-coagulant. The citrated blood was centrifuged at 700 rpm for 10 minutes. The supernatant was removed and saved as the platelet rich plasma (PRP) fraction. The PRP was centrifuged at 10,000 rpm for 20 minutes. The supernatant was removed and saved as the platelet poor plasma (PPP) fraction. The pellet contained the platelets, which were washed by resuspending in 10 mM Tris-HCl pH 8.0 buffer and centrifuging at 10,000 rpm for 10 minutes. The isolated platelets were resuspended in buffer and used in experiments.\nAs discussed above, Furlan et al. reported that some peptidyl-pNA moieties, such as XLY-pNA and XVY-pNA, were not substrates for ADAMTS13. We prepared LVY-pNA and tested it for its ability to be cleaved by ADAMTS13. The results shown in FIG. 2 confirm the findings of Furlan et al., i.e., LVY-pNA was not cleaved by ADAMTS13.\nIn order to determine the effect of modifying the length of the peptide sequence conjugated to the AMC fluorochrome, normal PRP (20 μl) was incubated at 37° C. with a final concentration of 0.8 mM Suc-LLVY-AMC or LVY-AMC in 10 mM Tris-HCl pH 8.0 buffer in total volume of 200 μl. Fluorescence was measured using a microtiter fluorophotometric plate reader (Ex 360 nm/Em 460 nm)."}, "human FXI": {"target": "human FXI (Homo sapiens, UniProt P03951)", "assay": "Binding of recombinant ADAMTS13 to FXI-coated plates (ELISA)", "conditions": "FXI coated at 1 μg/ml, 1 hour, detection anti-ADAMTS13 TSP5-7 rabbit polyclonal, OD 450 nm, FIG. 22", "experimental": "Binding of recADAMTS13 to immobilized FXI was measured using microplates coated with human FXI at a concentration of 1 μg/ml. RecADAMTS13 in solution was added to the FXI-coated microwells and incubated for 1 hour. ADAMTS13/FXI complexes were measured using ELISA. Specifically, after incubation with recADAMTS13, plates were washed with PBS +1% Tween, followed by incubation for 1 hour with anti-ADAMTS13 TSP5-7 rabbit polyclonal antibodies (1 μg/ml). Plates were washed again in PBS+1% Tween, followed by addition of a murine anti-rabbit IgG antibody conjugated to HRP. The detection antibody was incubated for an hour at room temperature. After washing the excess detection antibody from the plates, the TMB substrate was added, incubated for 10 minutes, after which 0.5 M sulfuric acid was added to terminate the reaction. The optical density of the mixture was measured at 450 nm on a spectrophotometer (FIG. 22)."}, "ADAMTS13/FXI complexes": {"target": "T2, ADAMTS13/FXI complexes (Homo sapiens, UniProt P03951+Q76LX8)", "T2 construct": "addition of FXI (Enzyme Research Lab, Canada) to FXI-deficient plasma diluted 1:8 in ECD; purchased Enzyme Research Lab, Canada; host or cells: FXI purchased; ADAMTS13 endogenous in plasma from patients with congenital FXI deficiency", "assay": "Formation of ADAMTS13/FXI complexes in FXI-deficient plasma after addition of FXI (ELISA)", "format": "binding", "conditions": "FXI-deficient plasma diluted 1:8 in ECD, 30 minutes, FIG. 25", "experimental": "An assay was developed for measuring the presence of ADAMTS13/FXI complexes by ELISA analysis. A standard curve was generated using PNP (Saturn Biomedical), diluted 1:4 in ECD buffer (PBS/3% BSA/gentamicin), and then serially diluted 1:2 in ECD buffer. Assays were performed in duplicate, using 100 μl of each standard dilution in Immulon 4 HBX 96-well microtiter plates (ThermoLabsystems, Franklin, Mass.) that were coated with goat anti-human ADAMTS13 antibody raised against a synthetic peptide sequence in the CUB1 domain (SC21510; Santa Cruz Biotechnology, Santa Cruz, Calif.) at a concentration of 1 μg/ml in 3-(N-morpholino)propanesulfonate (MOPS) coating buffer (0.1 M MOPS, 0.15 M NaCl, 0.05 M CaCl2, 0.066 M Trehalose, 0.02% NaN3, pH 7.4). Microtiter plates were blocked with SuperBlock (Pierce Chemical Co., Indianapolis, Ind.).\nStandards and diluted samples were incubated in coated microwells for 2 hours at room temperature, with mixing. […] The optical density of the mixture was then read in a spectrophotometer at 450 nm.\nFormation of ADAMTS13/FXI complexes was measured after addition of FXI (Enzyme Research Lab, Canada) to FXI-deficient plasma diluted 1:8 in ECD. […] The plasma containing newly formed ADAMTS13/FXI complexes were then added to anti-ADAMTS13 antibody-coated microwells and quantified, as described in Example 16."}}, "note": "Numbered stars: 1 amine (or outer) side, 2 acyl side, 3 side chain; on linkers, the order of the positions; unused ones are H or OH. * marks the point of attachment. AMC = Cc1cc(=O)oc2cc(N*)ccc12; Suc = O=C(CCC(=O)[*:2])[*:1]"}
{"substance": "Suc-Leu-Leu-Val-Tyr-AMC (Suc-LLVY-{AMC}; SMILES Cc1cc(=O)oc2cc(NC(=O)[C@H](Cc3ccc(O)cc3)NC(=O)[C@@H](NC(=O)[C@H](CC(C)C)NC(=O)[C@H](CC(C)C)NC(=O)CCC(=O)O)C(C)C)ccc12) [Suc-LLVY-AMC, fluorogenic peptidyl substrate from Bachem Bioscience Inc]", "values": [{"measurement": "cleavage of fluorescent substrate by recADAMTS13 in supernatant of transfected HEK 293 cells versus mock", "setting": "[1]", "value": "cleavage of the substrate by recADAMTS13"}, {"measurement": "cleavage of peptidyl-AMC substrate by ADAMTS13 in PRP", "setting": "ADAMTS13; normal PRP 20 μl, 10 mM Tris-HCl pH 8.0, Ex 360 nm/Em 460 nm", "value": "cleaved"}, {"measurement": "fluorescence signal over time as compared to the LVY-AMC substrate", "setting": "ADAMTS13; normal PRP", "value": "higher signal over time"}]}
{"substance": "recADAMTS13: recombinant ADAMTS13 in culture supernatant of transfected HEK 293 cells", "values": [{"measurement": "complex formation with immobilized FXI", "setting": "human FXI", "value": "stable complex"}]}
{"substance": "FXI: Factor XI zymogen (Enzyme Research Lab, Canada)", "values": [{"measurement": "ADAMTS13/FXI complexes formed upon addition of FXI", "setting": "ADAMTS13/FXI complexes", "value": "increasing amounts of ADAMTS13/FXI complexes were formed"}]}
